Experiment: soluble fraction after stress (log2 fold change); higher = more stays soluble; pooled small domains, quantitative proteomics
Details: stress: 75 degC
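Also: 20 min heating vs room temperature control held 20 min.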

Sequence | soluble fraction (log2)
HMFTKSNLEKLSNSELILKAIDSGNYSKIEFGGSEALNPDVPSYKKDLKNREELIEILSEMGM | 0.148
HMFVNADEIAKGLSPFNPSSVAIEAGRLMLKRIGELLSAGVSFSVETTLSTRSYINLIQQAQNQGYSVSL | 0.822
HMFVVVPDLIGKTINQFEEDLSELNLKYVVSDSGNFNPEFKINAVLDQSPKANSKVKDGRKIYLTLNAS | -0.434
HMFWRKIDFYGLNLSTYRNIINIGSDYNYIYLDLGNIYKILNPITGKIIEEQDLVMNIDNINWSS | 0.283
HMFYNDLINFDVFRDSRKIGKIENINSRLPQPVFEIMYDSRIVLIPIHEDFIRKIDKVNNIIYLDIPDGLL | -2.99
HMGAAFITSSKDNAINIRQSANTDSKVIETVTNGQILESNEKSGEWHKVTYYDNDIKKSFTGYVHEGQLK | 0.0505
HMGAAIEYGDRGNTVLQAQRLLIARGYMAGSADGIYGRQMEQAVKRFQKEQGLPESGVVDRRTLQVLIRSR | -1.63
HMGAARRFEMSEGGSQKFWEVAVEGPALTVRFGKLGTAGTTQTKTLASAEAAAKEADKLVREKTKKGYAP | -0.199
HMGAATQADIARVQELLNRLGYDAGSPDGLMGPRTRDAILEYQLTEGLETTGTVTRETLASLEARL | 0.0156
HMGAGFREAIPPALDGERIDRVVSLLAYVSRNRAAGALAAGSVSVDGEVVFQRSRRVREGEELVVTGFERE | -1.01
HMGAITGLQSRVAFLKGQGTITDAEAKTAMAFLPDPTDSKEVKIAKIGQAREYIMSLIENRA | -0.267
HMGAIVTGTVVEIRSDVVIVNAGLKSEGVVPIEQFRNEAGELEVSVGDEVKVALDALEDGFGETRLS | -0.347
HMGAIVTVPDLAGRPQPGAEAELRRSGLVPKVRTSYSLTGTRGTVISQTPPAGSRVREGAEVEVVVSRGLN | 0.00469
HMGAKLTTAQGGTLKVLVKGKKTHTPTIELRDKDPDFPNAKVVQPDINKGNKQIAHGINGVL | 0.686
HMGALAITPDFVGQTREEAERFLRDLDLSFDIGGKGDRILRQEPVAGQRMNLDQPMKLWVGSMNA | 0.245
HMGANAVAAFTARVRTGPSTGYPVRISVPQGRQVRVISGPYGGWYRVSYQGLTGYTYGGLLRQG | -0.673
HMGAPAISYSKFLEQVDRKNVASVTIYKDGRIDGVMTSGSRFATESPSDPGLVGDLLKAGVEIRAKPP | 0.177
HMGAPVIYELTAESAAGQRIDKYLSGQLADLSRSYLQKLLKDGGVEVNKKPVKSNYKLSEGDQIRLEVPEA | 0.0457
HMGAQINSPISGTILKYLVKNGDKITKDQPLVNIESMKMENTIKSDKEGIVNNINFKIGDSVNTADTLLTL | 0.0698
HMGAQKITIPDFSNQEATQVYAELKNMGLEYTESRMNHPSIASGYVIKTEPTKGSEVKAGTTVTVYVSLG | -0.112
HMGARHPLPYPFARAHGLLLEADGERSTLWASTNVSPAALSEVMRKYAVDVIEEEPPETLSQRIAAAYAA | -0.155
HMGASFITSSKDNAINIRESATTDSKVIETIKNGEILESTEKSGDWHKVTYYNSEIKKSFTGYIHNSQLK | 0.426
HMGASLVIVPGAGFLRVSASSQTRLDVYSITGMRVRSVDFEPGTTEIELPAGFYIAGGRKFFV | -2.42
HMGAYITYEVKPGDTLWDIANKFPGVSADNIKTWNKVDELIKAGERLKINTQTITDYSPDKYPS | -0.242
HMGDADDLSRELLQQGLSLKEAVADFERRYLQQAMQRHSSIASVSEALDVHFSTLWRKLVKYNLV | -0.104
HMGDADDLTRIKGIGPKLSKTLNELGIYHFRQIAGWQSDEADWVDDYLSFKGRVMREQWIEQAQKFAS | -0.475
HMGDAIPVPDVSGFSEDQAMNNLRKVGLRPKATYVADDNTAKGYVTGTSPAKNIEVAPDSEVIVYVSSGP | 0.697
HMGDAPLITVDKRTIKVNGAKAQIQVYDTTGRLVKNVSPAGKLTLIEMAKPGIFIVHTQSMSFKVVL | -0.351

Sequence | soluble fraction (log2)
HMGDAVYSKVKDLVNTYNALAKQTGKSDLVSISQSRTWMVNDTKAHEVQWNKIGITIEDDQTLTI | 0.0968
HMGDLDLVTFGQRLRHLRRSRNMTLSELGERVGRAPSQLSLLENGKREPKLSLLTALAKALDVSVEEL | -1.05
HMGDLVKGKVVGYDPDNVIVDIGAKTNALVPNREAVVEAGDDIKETLKKGNEYEFLIIRDEDEEGEFL | 0.24
HMGDPEYFKKQLGDFMDRFNITSEDIKNLSIAGAINRMMNNAEGEDKTVLSKLLETVNKSGVGNLPAKTI | -0.0106
HMGDPVRVDKFLHDMNVGTRSQIRKLIKEKAVFVNDVVAKSGRVKVDPVVDQVRLGEQVITYQ | -0.245
HMGDPYAILGLLPGASMEDVRHAWRRQAAENHPDRMLQRGAPPEFVEIAREKTAAINAAYARIREELSI | -0.433
HMGDTIGEQKAKEIALEHAGLKSSDVTFIRAVLEYDDRNWEYDVEFYDADTYTEYDYEIDAHTGKILSFDH | 0.351
HMGDTPVDFSEFIRWVDTGVVDRVELTGNEIVGTSSSGERFSTYAPPQYEGLGNKLIERDIVVVATAA | -0.0455
HMGDTVSGTMLNLKPGVRVVHQIFGPGRVEETTGASLAEFRVTVRFEQKGLKTLLLQYAALQVINSEN | -1.73
HMGDVKLNAIYNFLKEFSALNGFPPSVREIGAKFGIKSTSTVHYYLEKLKQSGVIQQEENKKRAVVIN | -1.32
HMGDWEDFWEKEARRRKLSLDYQVVRSLSRWSREYDWGEEDVEQFLSQFPEGETVKMEDVELYFE | -1.18
HMGDYDHYVVKVEDTLLNWLVTNVTTMSRNKLKDILAGQGIKVNGKITTKYDYPLTPGMKIAISKTKR | -1.41
HMGEAIPVPDIRHKSQADAERLLQDQGLAMMVTDTGYVKTLPANYILEQIPVAGEKVKSGHVVYVIINSG | -0.103
HMGEGIRIDSTAVVQVGEKMYAYLGGDGFSKEFWTNLPASGELAVTLKFEPIPMDAESLDFYEMPA | 0.307
HMGEILYSGVLKGGDGPEATKLALEKFLGEANTQVAGRIGVQPETQVIWLSREAVDSAASTLSQHKGNMYV | -0.247
HMGELDFYEEMRDDYLTGKIWNVGEIVEAKGMIGEIVRKGTNYISFVTDDNKVHKAWLHEIKL | -0.641
HMGELRAPLPGVIVSIPVKEGDEVKAGQAILIIEAMKMESEISSPIDAKVAKIVVKERVLVQEGDILIILE | -1.33
HMGEMTDFETLRDMYLTGQIWNIDDLIEANGVEGRIVRRGTNYIAFNDRDGKVHKAWLHEVTINE | -0.434
HMGENTIFSGVLGEGRLDSALAHALPQFSRARIQGLIAEDAVLIAGKATNDAASKKFAGQSFELSVPAPRP | 0.119
HMGEPQAWNELIGNLLRQWEARQTGWTPARKREALDRVLGAADPAALYTRLQGLLKSWTQAMTDADA | -1.73
HMGEQETILKGDVNRDGVVDVNDVTHLQIHISNDDKNPLIDVTNKAWFDAADMYGDGKLDILDATALQIYI | 0.196
HMGERVDGVVKFFNGQKGFGFIQREDGGPDAFVHISAVERAGMAGLDEGQRVSFELELDRRGKQAAINLTP | 0.108
HMGESYGPVRRGETLWSIAEKVKPAGVSTQKELAAIYAANPQAFIRGDINLLKAGAELRLPSPEAL | -0.0179
HMGESYQIKDGELLVDIAQRVKPAGMTLRQTINALVAANPRAFRNGNPDLMYRGATLTIPDGDTLRRLAH | -0.0841
HMGEVQALIPGLVSKLFVVEGESVKIGQKLIILEAMKMENEIASPINGTIKKIYIKSGDKIDKGSIIMEIT | -3.41
HMGEVVSAPMPGTILSIKVSQGQTVKRGQVLLILEAMKMENEIVAPRDGVVVQISTTQGASVETGAPLVVL | -1.1
HMGEVYPSDIVEKMKQANLHILEGTLYPLLTRLKNAGLLNYRWVESVTGPPRKYFVMTEEGKAAF | 0.13
